Values of other authors in PMC8526499.
Read-outs that look alike come from different tables or passages of the source. Values belong to the substance of their own block, whether it stands above or below them.

Assays:
CD47 (Mus musculus) = CD47 (Mus musculus) (UniProt Q61735)
CD47 (Homo sapiens) [1] = biological target: CD47 (Homo sapiens) (UniProt Q08722)
CD47 (Homo sapiens) [2] = biological target: CD47 (Homo sapiens) (UniProt Q08722); remark: listed apart in the source
CD47 (Homo sapiens) [3] = biological target: CD47 (Homo sapiens) (UniProt Q08722); remark: listed apart in the source

Sequence of UniProt Q08722 (Q08722 19-323): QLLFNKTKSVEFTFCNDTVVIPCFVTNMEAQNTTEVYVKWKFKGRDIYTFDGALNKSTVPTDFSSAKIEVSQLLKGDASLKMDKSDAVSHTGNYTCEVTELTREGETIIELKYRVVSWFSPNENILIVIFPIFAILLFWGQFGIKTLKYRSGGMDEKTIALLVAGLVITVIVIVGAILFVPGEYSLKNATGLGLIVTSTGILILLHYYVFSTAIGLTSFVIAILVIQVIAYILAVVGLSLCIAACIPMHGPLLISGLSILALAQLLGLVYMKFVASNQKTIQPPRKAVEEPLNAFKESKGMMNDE
Sequence of UniProt Q61735 (Q61735 19-303): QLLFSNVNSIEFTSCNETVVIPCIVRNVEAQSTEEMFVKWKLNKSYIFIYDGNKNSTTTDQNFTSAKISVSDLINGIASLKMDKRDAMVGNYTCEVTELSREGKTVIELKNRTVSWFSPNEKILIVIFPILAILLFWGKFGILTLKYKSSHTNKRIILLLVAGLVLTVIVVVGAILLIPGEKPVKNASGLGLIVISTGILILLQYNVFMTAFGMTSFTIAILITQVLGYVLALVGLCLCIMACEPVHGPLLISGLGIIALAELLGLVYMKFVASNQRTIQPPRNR

Kd (CD47 (Mus musculus)): 5 µM
Kd (CD47 (Homo sapiens) [1]): 5 µM
Substance: SIRPα (C57BL/6) (from UniProt P97797)

Kd (CD47 (Homo sapiens) [2]): 0.08 µM
Substance: SIRPα (NOD) (from UniProt P97797)

Kd (CD47 (Homo sapiens) [3]): 0.45 µM
Substance: SIRPα (from UniProt P78324)
